Assay results from patent US20240270866A1 (Alector, published 2024).
Substitutions are numbered along the chain they refer to.

B1: SA-25 (antibody, V domains shown)
VH: QVQLVQSGAEVKKPGSSVKVSCKASGGTFSSYAISWVRQAPGQGLEWMGSIIPIFGTANYAQKFQGRVTITADESTSTAYMELSSLRSEDTAVYYCARDRGYPRYSYLDLWGRGTLVTVSS
VL: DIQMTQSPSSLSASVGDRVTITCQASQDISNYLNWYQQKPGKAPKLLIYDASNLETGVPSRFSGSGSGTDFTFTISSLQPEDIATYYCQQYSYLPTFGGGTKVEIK
notes: IgG
B2: SA-31 (antibody, V domains shown)
VH: B1 VH
VL: EIVLTQSPGTLSLSPGERATLSCRASQSVSSSYLAWYQQKPGQAPRLLIYGASSRATGIPDRFSGSGSGTDFTLTISRLEPEDFAVYYCQQFFSYPPTFGGGTKVEIK
notes: IgG
B3: SA-16 (antibody, V domains shown)
VH: QVQLQQWGAGLLKPSETLSLTCAVYGGSFSGYYWSWIRQPPGKGLEWIGEIDHSGSTNYNPSLKSRVTISVDTSKNQFSLKLSSVTAADTAVYYCARDLGPPGPHLDVWGQGTMVTVSS
VL: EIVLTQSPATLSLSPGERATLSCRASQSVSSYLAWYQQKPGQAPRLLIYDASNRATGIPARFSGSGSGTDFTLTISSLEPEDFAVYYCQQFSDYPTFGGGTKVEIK
notes: IgG
B4: SA-39 (antibody, V domains shown)
VH: QVQLVQSGAEVKKPGASVKVSCKASGYTFTSYYMVWVRQAPGQGLEWMGIINPSGGSTSYAQKFQGRVTMTRDTSTSTVYMELSSLRSEDTAVYYCAREGGYGYRAYPYGMDVWGQGTTVTVSS
VL: DIQMTQSPSSLSASVGDRVTITCQASQDISNSLNWYQQKPGKAPKLLIYDASNLETGVPSRFSGSRSGTDFTFTISSLQPEDIATYYCQQVIILPLTFGGGTKVEIK
notes: IgG
B5: SA-27 (antibody, V domains shown)
VH: QLQLQESGPGLVKPSETLSLTCTVSGGSISSSSYYWGWIRQPPGKGLEWIGSIYYSGSTYYNPSLKSRVTISVDTSKNQFSLKLSSVTAADTAVYYCARDSDKVALDLWGRGTLVTVSS
VL: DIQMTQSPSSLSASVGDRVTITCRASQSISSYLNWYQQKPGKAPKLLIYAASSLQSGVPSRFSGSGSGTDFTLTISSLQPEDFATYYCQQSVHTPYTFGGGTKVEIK
notes: IgG
B6: SA-36 (antibody, V domains shown)
VH: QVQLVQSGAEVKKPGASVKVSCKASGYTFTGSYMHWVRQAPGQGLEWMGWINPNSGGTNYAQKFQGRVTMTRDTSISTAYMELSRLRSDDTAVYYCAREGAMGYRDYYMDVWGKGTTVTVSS
VL: EIVLTQSPATLSLSPGERATITCQASQDISSYLAWYQQKPGQAPRLLIYDASNRATGIPARFSGSGSGTDFTLTISSLEPEDFAVYYCQQRTHYPWTFGGGTKVEIK
notes: IgG
B7: SA-34 (antibody, V domains shown)
VH: QVQLVQSGAEVKKPGASVKVSCKASGYTFTNYGISWVRQAPGQGLEWMGWISAYNGNTNYAQKLQGRVTMTTDTSTSTAYMELRSLRSDDTAVYYCARDVYSSYSYWGQGTLVTVSS
VL: DIQLTQSPSTLSASVGDRVTITCRASQSISSWLAWYQQKPGKAPKLLIYDASSLESGVPSRFSGSGSGTEFTLTISSLQPDDFATYYCQQYELLPPTFGGGTKVEIK
notes: IgG
B8: SA-35 (antibody, V domains shown)
VH: QVQLVQSGAEVKKPGASVKVSCKASGYTFTSYYMHWVRQAPGQGLEWMGIINPSGGSTSYAQKFQGRVTMTRDTSTSTVYMELSSLRSEDTAVYYCAREAGYDIKGFDYWGQGTLVTVSS
VL: B7 VL with L4M, D50K, E92G, L93S, L94F, P96L
notes: IgG
B9: SA-28 (antibody, V domains shown)
VH: QVQLQESGPGLVKPSQTLSLTCTVSGGSISSGGYYWSWIRQHPGKGLEWIGNIYYSGSTYYNPSLKSRVTISVDTSKNQFSLKLSSVTAADTAVYYCARDSDTSWGGFDYWGQGTLVTVSS
VL: B2 VL with S30R, F92A, F93G, S94V, Y95S, P97Y
notes: IgG
B10: SA-29 (antibody, V domains shown)
VH: B9 VH
VL: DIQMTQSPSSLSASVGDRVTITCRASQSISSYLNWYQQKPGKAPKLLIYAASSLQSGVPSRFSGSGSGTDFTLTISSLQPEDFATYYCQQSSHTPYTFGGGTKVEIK
notes: IgG
B11: SA-37 (antibody, V domains shown)
VH: QVQLQESGPGLVKPSQTLSLTCTVSGGSISSGGYYWSWIRQHPGKGLEWIGSIYYSGSTYYNPSLKSRVTISVDTSKNQFSLKLSSVTAADTAVYYCAREGAYSLYVNWFDPWGQGTLVTVSS
VL: B2 VL with Y33F, F92Y, F93D, S94G, Y95V, P97I
notes: IgG
B12: SA-32 (antibody, V domains shown)
VH: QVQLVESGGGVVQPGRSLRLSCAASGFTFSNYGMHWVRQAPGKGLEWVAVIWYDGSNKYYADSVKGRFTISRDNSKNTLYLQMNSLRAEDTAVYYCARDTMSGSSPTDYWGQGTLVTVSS
VL: EIVMTQSPATLSVSPGERATLSCRASQSVGSNLAWYQQKPGQAPRLLIYGASTRATGIPARFSGSGSGTEFTLTISSLQSEDFAVYYCQQLNVFPWTFGGGTKVEIK
notes: IgG
B13: SA-22 (antibody, V domains shown)
VH: EVQLVESGGGLVKPGGSLRLSCAASGFTFSSYSMNWVRQAPGKGLEWVSSISSSSSYIYYADSVKGRFTISRDNAKNSLYLQMNSLRAEDTAVYYCARDPTDSSSYYDVWGQGTLVTVSS
VL: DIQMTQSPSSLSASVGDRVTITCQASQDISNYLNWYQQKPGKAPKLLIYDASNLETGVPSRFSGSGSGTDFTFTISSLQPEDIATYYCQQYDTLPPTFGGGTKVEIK
notes: IgG
B14: SA-38 (antibody, V domains shown)
VH: B11 VH
VL: EIVMTQSPATLSVSPGERATLSCRASQSVSSSLAWYQQKPGQAPRLLIFGASTRATGIPARFSGSGSGTEFTLTISSLQSEDFAVYYCQQYDNYPPITFGGGTKVEIK
notes: IgG
B15: SA-26 (antibody, V domains shown)
VH: QVQLQQWGAGLLKPSETLSLTCAVYGGSFSGYYWSWIRQPPGKGLEWIGEIDHSGSTNYNPSLKSRVTISVDTSKNQFSLKLSSVTAADTAVYYCARDRLDGSLGIYGMDVWGQGTTVTVSS
VL: DIQMTQSPSSLSASVGDRVTITCRASQSINSYLNWYQQKPGKAPKLLIYAASSLQSGVPSRFSGSGSGTDFTLTISSLQPEDFATYYCQQSPSDPWTFGGGTKVEIK
notes: IgG

Key:
Human SIRPb D1 Fc = Human SIRPb D1 Fc (human, UniProt O00241 30-148, limits assumed); assay: ForteBio IgG avid;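 further: antibody IgG captured on AHQ biosensors, then 100 nM Fc-fused SIRP antigen applied for 3 min, followed by 3 min buffer dissociation, kinetics fitted to a 1:1 model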
Human SIRPA D1 Fc = molecular target: T1, Human SIRPA D1 Fc (human, UniProt P78324 32-137); assay: ForteBio IgG avid;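 further: antibody IgG captured on AHQ biosensors, then 100 nM Fc-fused SIRP antigen applied for 3 min, followed by 3 min buffer dissociation, kinetics fitted to a 1:1 model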
T1 construct: not shown: human IgG1 Fc

Mouse SIRPA D1 Fc = molecular target: T2, Mouse SIRPA D1 Fc (mouse, UniProt P97797 32-150, limits assumed); assay: ForteBio IgG avid;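 further: antibody IgG captured on AHQ biosensors, then 100 nM Fc-fused SIRP antigen applied for 3 min, followed by 3 min buffer dissociation, kinetics fitted to a 1:1 model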
T2 sequence: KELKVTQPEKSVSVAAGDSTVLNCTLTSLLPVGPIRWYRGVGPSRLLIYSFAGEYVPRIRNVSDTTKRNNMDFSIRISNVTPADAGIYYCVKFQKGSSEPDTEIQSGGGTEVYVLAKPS

[1] = molecular target: T3, mouse SIRPA overexpressed on CHO cells (mouse, UniProt P97797 32-513); assay: flow, CHO-muSIRPA;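 on relative MFI: antibody binding measured by flow cytometry: cells stained with 1 ug/ml test antibody for 1 h on ice, detected with PE-labelled secondary antibody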
T3 construct: also called CHO-muSIRPA
T3 sequence: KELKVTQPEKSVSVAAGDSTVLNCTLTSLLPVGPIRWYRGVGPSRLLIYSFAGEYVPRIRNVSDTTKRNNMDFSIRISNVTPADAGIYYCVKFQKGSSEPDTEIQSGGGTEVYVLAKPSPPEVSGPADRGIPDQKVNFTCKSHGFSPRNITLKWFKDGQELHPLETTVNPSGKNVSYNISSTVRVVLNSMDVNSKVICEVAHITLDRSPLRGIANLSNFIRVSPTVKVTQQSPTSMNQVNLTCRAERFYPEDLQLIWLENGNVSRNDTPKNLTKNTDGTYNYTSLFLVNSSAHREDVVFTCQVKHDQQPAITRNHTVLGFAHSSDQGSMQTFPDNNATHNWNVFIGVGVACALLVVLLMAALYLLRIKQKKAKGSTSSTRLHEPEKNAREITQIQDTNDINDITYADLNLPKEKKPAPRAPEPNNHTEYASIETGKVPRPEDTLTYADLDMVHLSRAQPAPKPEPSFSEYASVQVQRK

[2] = molecular target: T4, human SIRPA overexpressed on CHO cells (human, UniProt P78324 31-504); assay: flow, CHO-huSIRPA;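 further: Anti-SIRPA antibodies applied at 1 µg/mL for 1 h on ice, binding read by flow cytometry using a PE-labelled secondary antibody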
T4 construct: also called CHO-huSIRPA

[3] = molecular target: T3, mouse SIRPA overexpressed on CHO cells; assay: flow, CHO-muSIRPA; remark: listed apart in the source;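 on relative MFI: antibody binding measured by flow cytometry: cells stained with 1 ug/ml test antibody for 1 h on ice, detected with PE-labelled secondary antibody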

Chain of Human SIRPb D1 Fc (O00241 30-148 limits assumed): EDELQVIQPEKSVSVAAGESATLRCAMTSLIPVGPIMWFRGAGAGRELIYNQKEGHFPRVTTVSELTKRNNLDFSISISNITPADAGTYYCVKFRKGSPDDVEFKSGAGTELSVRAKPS

Binder	binding result (Human SIRPb D1 Fc)	Kd (Human SIRPA D1 Fc) [nM]	binding result (Mouse SIRPA D1 Fc)	relative MFI [1] [fold over background]	relative MFI [2] [fold over background]	binding result [3]	Kd (Human SIRPb D1 Fc) [nM]
B1	no binding (tested: 100 nM)	24.2	no binding (tested: 100 nM)	0.586	8.27	no binding (tested: 1 ug/ml)	–
B2	no binding (tested: 100 nM)	6.47	no binding (tested: 100 nM)	0.509	12.4	no binding (tested: 1 ug/ml)	–
B3	no binding (tested: 100 nM)	4.02	no binding (tested: 100 nM)	0.539	0.592	no binding (tested: 1 ug/ml)	–
B4	–	3.62	no binding (tested: 100 nM)	0.571	1.47	no binding (tested: 1 ug/ml)	22.3
B5	no binding (tested: 100 nM)	4.43	no binding (tested: 100 nM)	0.619	0.722	no binding (tested: 1 ug/ml)	–
B6	no binding (tested: 100 nM)	8.67	no binding (tested: 100 nM)	0.574	27.9	no binding (tested: 1 ug/ml)	–
B7	no binding (tested: 100 nM)	26.8	no binding (tested: 100 nM)	0.613	0.806	no binding (tested: 1 ug/ml)	–
B8	no binding (tested: 100 nM)	10.2	no binding (tested: 100 nM)	0.491	48.2	no binding (tested: 1 ug/ml)	–
B9	no binding (tested: 100 nM)	6.67	no binding (tested: 100 nM)	0.467	0.775	no binding (tested: 1 ug/ml)	–
B10	no binding (tested: 100 nM)	4.55	no binding (tested: 100 nM)	0.479	0.595	no binding (tested: 1 ug/ml)	–
B11	no binding (tested: 100 nM)	10.2	no binding (tested: 100 nM)	0.464	1.27	no binding (tested: 1 ug/ml)	–
B12	no binding (tested: 100 nM)	24.4	no binding (tested: 100 nM)	0.685	35.4	no binding (tested: 1 ug/ml)	–
B13	no binding (tested: 100 nM)	22	no binding (tested: 100 nM)	0.619	1.39	no binding (tested: 1 ug/ml)	–
B14	no binding (tested: 100 nM)	3.81	no binding (tested: 100 nM)	0.458	2.96	no binding (tested: 1 ug/ml)	–
B15	no binding (tested: 100 nM)	13.8	no binding (tested: 100 nM)	0.574	1.1	no binding (tested: 1 ug/ml)	–
